# Experiment: soluble on expression in E. coli; label from the status in PepcDB or PDB records
row,Sequence,soluble on expression in E. coli
1,MERSAIQIPAGRIDDAVAKVDGLVGELMQNTGIPGMAVAIVHGGKTLYAKGFGVRDVGKGGGPDNKVDADTVFQLASVSKSVGATVVAHAVTDNVVTWDTPVVSKLPWFALRDPYVTGQVTIADLYSHRSGLPDHAGDLLEDLGYDRRQVLQRLKYLPLAPFRISYAYTNFGVTAAAEAVAAAAGQSWEDLSDEVLYRPLGMGSTSSRFTDFLARPNHAVNHVKVADRWEARYQRDPDAQSPAGGVSSSLNDMTHWLAMVLADGVYNGRRITSPEALLLVYTPQVISRHPVSPRARASFYGYGFNVGVTSSGRTEYSHSGAFGLGAAANFVVLPSEDLAIIALTNAGPIGVPETLTAEFMDLVQYGQVREDWAALYKKAFAPLNELAGSLVGKQSPANPAPSRPLNDYVGVYANDYWGPATVTYHDGQLRLSLGPKNQTFDLTHWDGDTFTFTLSTENALPGSISKATFAGDTLNLEYYDADKLGTFTRLEHHHHHH,not soluble
2,MGHHHHHHSHMMYAQSKGIYYVQLEDDIVAKPNYLSTMKNFALQQPSEDWMILEFSQLGFIGKMFKSLDLSLIVEFILMFYRDKPIDWLLDHILWVKVCNPEKDAKHCDRQKANLRIRFKPSLFQHVGTHSSLAGKIQKLKDKDFGKQALRKEHVNPPAEVSTSLKTYQHFTLEKAYLREDFFWAFTPAAGDFIRFRFFQPLRLERFFFRSGNIEHPEDKLFNTSVEVLPFDNPQSDKEALQEGRTATLRYPRSPDGYLQIGSFYKGVAEGEVDPAFGPLEALRLSIQTDSPVWVILSEIFLKKAD,soluble
3,GPGSMSNEEVFRISNVSGYSVEIPLATAKELLGMLNMDQVFRAARAGTDDTDESGVDDGDTEPVKAEGMDYGKEVLDVVRAYALLPPDKRTSSIPRPLTQDLRSVVYAGEMELVEKAEREDYLVDLLNCALFLRFSQLSALCAAYMAVRIDEIAKAAPDIMEGAERIRKFLHMQNEWTEEEMGHLRREMEYAKSVDPNVY,soluble
4,MHQVVCATTNPAKIQAILQAFHEIFGEGSCHIASVAVESGVPEQPFGSEETRAGARNRVANARRLLPEADFWVAIEAGIDGDSTFSWVVIENASQRGEARSATLPLPAVILEKVREGEALGPVMSRYTGIDEIGRKEGAIGVFTAGKLTRASVYHQAVILALSPFHNAVY,soluble
5,PIVGRIIHIENQQLNEYTGNYSSFENQRAQKMMLQQAMFEKQQKQMSHMQSYIDRFRYKASKARQAQSRIKALERMEKVLPAQFDNPFSFEFRQPAALPNPIMMMDDVSAGYGDNLILEKIRLNLVP,not soluble
6,MGSDKIHHHHHHMTLKVTLCDDSKMARKQLLRTLPDDWDAEVHQAEHGEQALTCLREGRAEVLFLDLNMPVKDGYETLQAIKEEQLETLVIVVSGDIQPEAQKRVQALGAMAFVKKPMKPEDIQTLLQQFGLYQPAAGQLKLADETPQAPANPLDVYREVSNVAMGQAGDHLARVLDTFIELPVPNVNFIAPSELHMAIESIDTNKQVAAVSQGFSGSGILGEALTLFNDASIDDIGKLLGAKLGESGSIKQQRIESLMDVASILSSACLNGLGQQLHVEFAASQPVLLGEHQSMRELIKHGEHRWQKILAIEIGYQLPEHKLAFDLLLLFPADAVKILDQQLAHWLQGDDE,not soluble
7,MAHHHHHHMGRASKDKRDIYYRKAKEEGYRARSAYKLLQLHEEFGILRREEIRTGVVDLCAAPGSWSQVLSNHLCGSQPGSAAEACEGDEAINSEASQRPRIVAVDLQEMMPIDGVQLLQGDITSEWTAREIIRLLNGDSSSVPECSDATALSTAGAINDFNNGRGNNVSEEGKSSQQRSDCGVGLMNERNNASECVDGDNNNNNSNNNDDRNGGDAGASTRPVAGRKADLVVCDGAPDVTGMHELDEYLQHHLLLAALNITTFVLRRGGTFVTKMFRGPNTPFLVAKAEVFFRQVTIAKPKSSRNASMEAFMVCQNYDPPASYQPSFERPLTQTTSCFTPAAPALHLAAVDAQRMSSDNVNNGELHHSGVTDIVDEAYAVESVIVPFLACGDLTGYDADMCYDRGESDVVLPPVQPPLQAPYIAISEAVKERTKRQRVG,not soluble
8,MISPKKEITSSKYQKIAISVAQRIANGEYEVGEKLKSRTTIASTFNVSPETARKGLNILADLKILTLKHGSGAIVLSKERAIEFINQYESTHSIAVLKEKIRETINDQGKAMEKMAVLVNDFLMQSQSVSKQYPLAPYEIICNQDSEHFGKSIGVLNIWHQTGATIVAIEHAGQFIVSPGPYSVIEKGDHIYFVGDESVISRMKTFFNLRKGL,not soluble
9,MGSDKIHHHHHHMYPAKHYQTNEENITHYHEIIESNPLATLLFSHESEIDVSHIPCHFSLKTSNTNTQQLERSTLTAHVSNHHPLAKVLQRSSTVALQLVFHGEDAYISPRDVSKQHSHAQSVPTWNYAKVHVSGIAHEVKDSDDKYQYMAASTAYFEQRRSTNNIDKPWSIEEAPAIAIKKMLNAITIFSINITHLEGRFKLSQNKSKAVQKEIAEQLTTRGVEELGQLMLAL,not soluble
10,MGSDKIHHHHHHMRGGNIKAIVYLPLDPEKAKQNNLPVKLPVLAEDLPKVLEEDRIPLDVILRGLEAQYEITKDEYYRSYYVFFLYEKFKQLLREGKLDEAEKILEKAKEVQYDYRYHFYRGLLLKHRGELGEAEIEMRLAISMNDRFAPAYFELAGILKEKNEIEDSLLFYEKAYEVNKEFLLPLLKKGDLLLEEGRLEEAIEEYRRILEKDSNFVEVYERLGVIYNQLQRFKEAEKFFKKALEIERKDHVEYNLSYTLIKLGKLFEALEILKRLYEKNPDDPMVANEYGLLLKTLGLYEEALEVFEDAYRRHKEEEILKYNYGTILLHFEKEKAVSILSEISGELKDRAEFMISLAEKDVVIPSYEEFEWLKDYFFEGTIDVVALSEEIDSEDEDAKRRIERLREGEFPFYDTTLDSSEMLEVILGIMFESPDIFKMEENAVKFVSAFYGSSVMIASTIVLTRTFQYFLAEEEPTMEELLRELVAETQDVNWKFSLRLARFRHADRFDFNRLSDLVIAFLQSIEQGTPVSDDERLKYLLEKLTFQKEG,not soluble
11,MQQFHIRRLREEDIPLLKGLLVELDTSHYEAEPNFYRSPEEMAQLREERGVFDKYFDDSMIAFIACSHRQVVGFISGTVRDIDSMVSVAKRVGFVNELVVSESHRNLGIGLSLMDKIESDLCNQGIEEIGLTVASFNHEGEDFYHKMGYRVMTKMMSKRVKDLEHHHHHH,soluble
12,GCPHDCVFCNQNTITGEESKVNGDYVKSTVEDYLDTIPNKSATIEISFFGGTFTAINIEKQKELLSVARHYKEIGKIKYIRLSTRPDYIDDEILTNLKNYSVDIIELGVQSLDSEVLLKSGRGHTKEDVVKASRLIKKYGFTLGHQIMLGLPGDNAEKDIETTRKVICMKPNICRIYPALVIKDTAMEKMYNRGIYKPYDIEECVEI,not soluble
13,MGSDKIHHHHHHMESFNEYHIDPKQFPFLKNFQDNWQVIRDEYTSFINNASNEELKFTYDVLGPKSQTIKTKGKSKYSAFGILFQGMFIEKYIQAHQIKYPDYGPDEASKKALVLREKYFTNLANVIKDVNLIEDDIIRNVYYGTFHPGLDIKLHVNYNPHTNRGYLGLIVPEGDVAMKICHDQLYWHEGKFLVLDHSYPHCPHNYTSYDRTVLVVDFFKPDKPRDEVIEFEKEQVTQRMQDNPYSLGVFGKSDKAKEEDFIKYGLAHQLEWDKALI,not soluble
14,TEELHKIEDIIRIFNDCFSQEYNTRLAKGGDYPIYLPAYRAENNTPSDRPYHVILFAHGYYSSALHEIAHWLVAGTARRQLEDFGYWYEPDGRSAEQQREFETVEVKPQAIEWILATAADFRYFASADNLSGNAGDNSAFKQAVYQQVKIYANRGYLPKRAEKLRQALAKFYGTTDQINLANFEIT,not soluble
15,MAHHHHHHMSDLDKIRSKLEALKSKTEVKTDERIEIAKKNDPFNDLKVHILNVLDETRKCIREKESLQNVHGNNIEVIKRGNIIYNNMKNLDTYFLKLEEILKKQEKKKYAYSREELFDKNETFELLKRQIYECKKLSNYEHIKDTCVMDFSDFKNKQQVESKS,soluble
16,MTERILEVNDLHVSFDITAGEVQAVRGVDFYLNKGETLAIVGESGSGKSVTTKAITKLFQGDTGRIKKGEILFLGEDLAKKPENELIKLRGKDISMIFQDPMTSLNPTMQIGKQVMEPLIKHKNYSKAQAKKRALEILNLVGLPNAEKRFKAYPHQFSGGQRQRIVIATALACEPKVLIADEPTTALDVTMQAQILDLMKELQQKIDTAIIFITHDLGVVANIADRVAVMYGGQMVETGDVNEIFYDPKHPYTWGLLSSMPDLSTTNDTPLLAIPGAPPDLLHPPKGDAFARRSQYALDIDFKVEPPWFKVSPTHFVKSWLLDARAPKVELPELVKQRMKPMPNNYEKPLKVERVSFNEK,not soluble

# — the DeepSol protein solubility set
